Molecular target: T1, angiotensin-converting-enzyme derived from pig kidney (pig) (UniProt F1RRW5)
T1 sequence (looked up): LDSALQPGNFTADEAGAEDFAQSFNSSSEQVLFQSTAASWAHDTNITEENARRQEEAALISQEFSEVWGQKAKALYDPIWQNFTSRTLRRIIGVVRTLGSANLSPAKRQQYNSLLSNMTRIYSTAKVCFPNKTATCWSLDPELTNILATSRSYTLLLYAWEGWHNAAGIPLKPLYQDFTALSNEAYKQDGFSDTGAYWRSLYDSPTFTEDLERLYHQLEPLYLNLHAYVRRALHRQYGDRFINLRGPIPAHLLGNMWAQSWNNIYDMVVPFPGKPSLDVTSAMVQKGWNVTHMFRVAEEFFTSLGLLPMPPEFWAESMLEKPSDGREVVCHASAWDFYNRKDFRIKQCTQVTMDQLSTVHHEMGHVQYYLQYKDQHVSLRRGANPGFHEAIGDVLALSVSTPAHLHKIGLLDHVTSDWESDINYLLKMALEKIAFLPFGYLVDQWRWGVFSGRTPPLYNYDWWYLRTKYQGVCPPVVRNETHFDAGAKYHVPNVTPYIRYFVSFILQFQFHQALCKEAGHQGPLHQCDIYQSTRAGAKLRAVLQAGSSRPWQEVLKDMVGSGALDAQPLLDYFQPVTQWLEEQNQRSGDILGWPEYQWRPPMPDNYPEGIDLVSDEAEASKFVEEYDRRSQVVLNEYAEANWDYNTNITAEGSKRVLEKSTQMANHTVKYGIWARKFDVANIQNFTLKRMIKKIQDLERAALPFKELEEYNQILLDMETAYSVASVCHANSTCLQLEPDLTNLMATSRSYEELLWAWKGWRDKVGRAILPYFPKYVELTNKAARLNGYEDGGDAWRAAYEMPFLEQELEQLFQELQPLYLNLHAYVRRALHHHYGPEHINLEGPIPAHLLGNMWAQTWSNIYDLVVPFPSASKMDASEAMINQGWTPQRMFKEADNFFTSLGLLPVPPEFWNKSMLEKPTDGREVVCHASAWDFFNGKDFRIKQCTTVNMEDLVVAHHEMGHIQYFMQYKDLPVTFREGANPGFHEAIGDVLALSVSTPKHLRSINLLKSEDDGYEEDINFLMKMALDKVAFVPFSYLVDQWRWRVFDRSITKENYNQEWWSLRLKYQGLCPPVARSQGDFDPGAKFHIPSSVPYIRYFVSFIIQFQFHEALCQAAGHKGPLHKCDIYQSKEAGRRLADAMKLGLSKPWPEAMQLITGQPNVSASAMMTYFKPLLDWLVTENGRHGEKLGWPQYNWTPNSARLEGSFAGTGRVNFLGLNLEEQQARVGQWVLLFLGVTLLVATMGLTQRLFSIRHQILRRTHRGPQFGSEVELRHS
Test: cell-based or functional assay

BPP9a from Bothrops jararaca (peptide) was tested, and the % inhibition, inhibitor 0.0097 µM, row A was 18%, the % inhibition, inhibitor 0.0097 µM, row B was 17.3% and the % inhibition, inhibitor 0.0097 µM, row C was 14.8%. For the same substance, the % inhibition, inhibitor 0.0097 µM, row D was 7.86%, the % inhibition, inhibitor 0.0195 µM, row C was 23% and the % inhibition, inhibitor 0.078 µM, row B was 43.5%. For the same substance, the % inhibition, inhibitor 0.15625 µM, row B was 63.3%, the % inhibition, inhibitor 0.3125 µM, row A was 84% and the % inhibition, inhibitor 0.3125 µM, row B was 83.8%. The % inhibition, inhibitor 0.625 µM, row A was 94%, the % inhibition, inhibitor 0.625 µM, row B was 93.5% and the % inhibition, inhibitor 1.25 µM, row B was 97.3%. The IC50, ACE inhibition was 97 nM, the IC50-value, ACE inhibition (hippuryl-histidyl-leucin substrate) was 97 nM and the fluorescence, inhibitor 0.0097 µM, row A was 704000. For the same substance, the fluorescence, inhibitor 0.0097 µM, row B was 710000, the fluorescence, inhibitor 0.0097 µM, row C was 732000 and the fluorescence, inhibitor 0.0097 µM, row D was 791000. For the same substance, the fluorescence, inhibitor 0.0195 µM, row A was 650000, the fluorescence, inhibitor 0.0195 µM, row B was 652000 and the fluorescence, inhibitor 0.0195 µM, row C was 662000. The fluorescence, inhibitor 0.0195 µM, row D was 697000, the fluorescence, inhibitor 0.039 µM, row A was 629000 and the fluorescence, inhibitor 0.039 µM, row B was 556000. For the same substance, the fluorescence, inhibitor 0.039 µM, row C was 592000, the fluorescence, inhibitor 0.039 µM, row D was 454000 and the fluorescence, inhibitor 0.078 µM, row A was 446000. The fluorescence, inhibitor 0.078 µM, row B was 487000, the fluorescence, inhibitor 0.078 µM, row C was 445000 and the fluorescence, inhibitor 0.078 µM, row D was 462000. The fluorescence, inhibitor 0.15625 µM, row A was 309000, the fluorescence, inhibitor 0.15625 µM, row B was 318000 and the fluorescence, inhibitor 0.15625 µM, row C was 311000. The fluorescence, inhibitor 0.15625 µM, row D was 262000, the fluorescence, inhibitor 0.3125 µM, row A was 142000 and the fluorescence, inhibitor 0.3125 µM, row B was 144000. For the same substance, the fluorescence, inhibitor 0.3125 µM, row C was 148000, the fluorescence, inhibitor 0.3125 µM, row D was 149000 and the fluorescence, inhibitor 0.625 µM, row A was 55600. It also gave a fluorescence, inhibitor 0.625 µM, row B of 60300, a fluorescence, inhibitor 0.625 µM, row C of 60900 and a fluorescence, inhibitor 0.625 µM, row D of 57500. The fluorescence, inhibitor 1.25 µM, row A was 25800, the fluorescence, inhibitor 1.25 µM, row B was 27500 and the fluorescence, inhibitor 1.25 µM, row C was 27000. For the same substance, the fluorescence, inhibitor 1.25 µM, row D was 27200, the fluorescence, inhibitor 2.5 µM, row A was 14000 and the fluorescence, inhibitor 2.5 µM, row B was 13900. The fluorescence, inhibitor 2.5 µM, row C was 14100, the fluorescence, inhibitor 2.5 µM, row D was 15100 and the fluorescence, inhibitor 5 µM, row A was 10600. It also gave a fluorescence, inhibitor 5 µM, row B of 9630, a fluorescence, inhibitor 5 µM, row C of 9630 and a fluorescence, inhibitor 5 µM, row D of 9660.
